Laboratory results: the RNAGym collection of RNA variant scans (doi:10.1073/pnas.2313332121)

B1: TPR t1 (parent)
chain: GACCAAUCUGCCCUCAGAGCUCGAGAACAUCUUCGGAUGCAGAGGAGGCAGGCUUCGGUGGCGCGAUAGCGCCAACGUCCUCAACCUCCAAUGCAUCCCACCACAUGAUGAUGCCUGAAGAGCCUUGGUUUUUUG

Variants of: B1
Test: polymerase ribozyme fitness, log enrichment relative to wild type (log ratio); higher = more active; in vitro selection for triplet polymerase activity
Procedure, shortened: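 For each subunit of a heterodimeric triplet polymerase ribozyme, a mutant library was built by PCR and transcribed, then taken through a single in vitro selection round in triplicate. Selection involved annealing to a biotinylated primer, the partner subunit and triplets, incubation frozen at −7 °C, gel excision of extended constructs, capture on streptavidin beads and RT-PCR. Genotypes were retained after Illumina sequencing of inputs and outputs only with ≥10 input reads and ≥1 read in each output. Fitness is defined as the logarithm of a genotype's enrichment relative to wild-type enrichment, using inverse-variance-weighted averages across replicates, with the logarithm taken to base 2.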

| Variant | polymerase ribozyme fitness (log ratio) |
| --- | --- |
| GACCAAUCUGCCUUCAGAGCUCGAGAACAUCUUCGGAUGCAGCGGAGGCUGGCUUCGGUGGCGCGAUAGCGCUAACGUCCUCAACUUCCAAUGCAGCCCACCACAUGUUGAUGCCUUAAGAGCCUUGGUUUUUUG [C13U A43C A50U C73U C86U U96G A108U G117U] | -6.8 |
| GACCAAUCUGCCUUCAGAGCUCGAGAACAUCUUCGGAUGCAGAGGAGGCAGGCUUCGGUGGCGCGUUAGUGGCAACGUCCUCAACCUUCAAUGCAUCCCACCACAUGAUGAUGCCUGAAAAGCCUCGGUUUUUUG [C13U A66U C70U C72G C88U G120A U126C] | -4.41 |
| GACCAAUCUGCCUUCAGAGCUCGAGAACAUCUUCGGAUGCAGAGGAGGCAGGCUUCGGUGGCGCGAUAGCGCCUACGUCCUCAACCUCCAAUCCAUCCCACCACAUGAUGAUACCUGAAGAGCCUUGGUUUUUUG [C13U A74U G93C G113A] | -1.26 |
| GACCAAUCUGCCGUCAGAGCUCGAGAACAUCUUCGGAUGCAGAGGAGGCAGGCUUCGGAGGCGCGAUAGCGCCAACGUCCUCAACCUCCAUUGCAUCCCACCACAUGAUGAUGCUUGAAGAGCCUUGGUUUUUUG [C13G U59A A91U C115U] | -4.42 |
| GACCAAUCUGCCUUCAGAGCUCGAGAACAUCUUCGGAUGCAGAGGAGGCAGGCUUCGGUGGCGCGAUAGCGCCAACGUCCUCAACCUCCAAUGCAUCCCACCACAUGGUGAUGCCUGAAAAGCCUUGGUUUUUUG [C13U A108G G120A] | -1.12 |
| GACCAAUCUGCCGUCAGAGCUCGAGAACAUCUUCGGAUGCAGAGGAGGCAGGCUUCGGUGGCGCGAUAGCGCCAACGUCCUCAACCUCCAAUGCAUCCCACCACAUGAUGAAACCUGAAGAGCCUUGGUUUUUUG [C13G U112A G113A] | -2.13 |
| GACCAAUCUGCCUUCAGCGCUCGAGAACAUCUUCGGAUGCAGAGGAGGCAGGCUGCGGUGGCGCGAUAGCGCCAACGUCCUCAACCUCCAAUUCAUCCCACCACAUGAUGAUGCCUGAAGAGCCUUGGUUUUUUG [C13U A18C U55G G93U] | -2.65 |
| GACCAAUCUGCCUUCAGAGCUCGAGAUCAUCUUCGGAUGCAGAGGAGGCAGGCUUCGGUGGCGCGAUAGCGCCAACGUACUCAACCUCCAAUGCAUCCCACCACAUGAUGAUGCCUGAAGAGCCUUGGUUUUUUG [C13U A27U C79A] | -3.24 |
| GACCAAUCUGCCUUCAGAGCUCGAGAACAUCUUCGGGUGCAGAGGAAGCAGGCUUCCGUGGCGCGAUAGCCCCAACGUCCUCAACCUCCAAUGCAUCCCACCACAUGAUGAUGCCUGAAGAGCCUUGGUUUUUUG [C13U A37G G47A G57C G71C] | -1.61 |
| GACCAAUCUGCCUUCAGAGCUCGAGAACAUCUUCGGAUGCAGAGGAGGCUGGCUUCGGUGGCGCGGUAGCGCCAACGUCCUCAACCUUCUAUGCAUCCCACCACAUGAAGAUGCCCGAAGAGCCUUGGUUUUUUG [C13U A50U A66G C88U A90U U109A U116C] | -5.37 |
| GACCAAUCUGCCUUCAGAGCUCGAGAACAUCUUCGGAUGCAGAGGAGGCUGCAUUCGGUGGCGCGAUAGCGCCAACGUCCUCAACCACCAAUGCAUCCCACCACAUGAUGAUGCCUGAAGAGCCUUGGUUUUUUG [C13U A50U G52C C53A U87A] | -3.76 |
| GACCAAUCUGCCUUCAGAGCUCGAGAACAUCUUCGGAUGCAGAGGAGGCAGGCUUCGGUGGCGCGAUAGCGCCAACGUCCUCCACCUCCAAUGCAUCCCACCACAUGAUGACGCCUGAAGAGCCUUGGUUUUUUG [C13U A83C U112C] | 1.79 |
| GACCAAUCUGCCGUCAGAGCUCGAGAACAUCCUCGGAUGCAGAGGAGGCAGGCUUCGGUGGCGCGAUAGCGCCAACGUCCUCAAGCUCCAAUGCAUCCCACCACAUGAUGAUGCCUGAAGAGCCUUGGUUUUUUG [C13G U32C C85G] | -4 |
| GACCAAUCUGCCUUAAGAGCUCGAGAACAUCUUCGGAUGCAGAGGAGGCAGGCUUCGGUGGCCCGAUAGCGCCAACGUCCUCAACCUCCAAUGCAUCCCACCACAUGAUGAUGCCUGAAGAGCCUUGGUUUUUUG [C13U C15A G63C] | -4.06 |
| GACCAAUCUGCCUUGAGAGCUCGAGAACAUCUUCGGAUGCAGAGGAGGCAGGCUUCUGUGGCGCGAUAGCGCCAACGUCCUCAACCUCCAAUACAUCCCACCACAUGAUGAUGCCUAAAGAGCCUUGGUUUUUUG [C13U C15G G57U G93A G117A] | -1.62 |
| GACCAAUCUGCCGUCAGAGCUCGAGAACAUCUUCGGAUGCAGAGGAGGCAGGCUUCGGUGGCGCGAUAGCCCCAACGUCCUCAGCCUCCAAUGCAUCCCACCAAAUGAGGAUGCCUUAAGAGCAUUGGUGUUUUG [C13G G71C A84G C104A U109G G117U C124A U130G] | -6.92 |
| GACCAAUCUGCCUUCAGAGCUCGAGAACAUCUUCGGAUGCAGAGGAGGCAGGCUUCGGUGGCGCGAUAGCGCCAACGUCCUCAACCUCCAAUGCAUCCCACCACAUGAUGAUGCCUGAAGCGCCUUGGUUUUUUG [C13U A121C] | 1.84 |
| GACCAAUCUGCCGUCAGAGCUCGAGAACAUCUUCGGAUGCAGAGGAGGCAGGCUUCGGUGGCGCGAUAGCGCCAACGUCCUCAACCUCCAAUGCAUCCCACCACAUGAUGAUGCCUGAAGAGCCUUAGUUUUUUG [C13G G127A] | -2.49 |
| GACCAAUCUGCCUUCAGAGGUCGAGAACAUCUUCGGAUGCAGAGGAGGCAGGCUUCGGUGGCCCGAUAGCGCCAACGUCCUCAACCUCCAAUGCAUCCCACCACAUGAUGAUGCCUGAAGAGCCUUGGUUUUUUG [C13U C20G G63C] | -4.8 |
| GACCAAUCUGCCUUCAGAGCUCGAGAACAUCUUCGGUUGCAGAGGAGGCAGGCUUCGGUGGCGGGAUAGCGCCAACGUCCUCAACCUCCAAUCCAUCCCACCACUUGAUUAUGCCUGAAGAGCCUUGGGUUUUUG [C13U A37U C64G G93C A105U G110U U129G] | -7.07 |
| GACCAAUCUGCCUUCAGAGCUCGAGAAGAUCUUCGGAUGCAGAGGAGGCAGGGUUCGGUGGCGCGAUAGCGCCAACGGCCUCAACCUACAAUGCAUCCCACCACAAGAUAGUGCCUGAAGAGCCUUGGUUUUUUG [C13U C28G C53G U78G C88A U106A G110A A111G] | -1.49 |
